# Results published in the supplement of paper PMC9112550, “Optimization of the antimicrobial peptide Bac7 by deep mutational scanning” (BMC Biology, 2022).
# Tested on: Escherichia coli TOP10
# Assay: shrunken log2 fold change of peptide-encoding DNA abundance (4.5 h post-induction vs induction); higher = less antimicrobial activity (less host growth inhibition)
# Conditions: time post-induction: 4.5 h; library: site-saturation at positions 5, 18, 19, 20
# 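Also: peptides expressed intracellularly from a pBAD plasmid library in pooled LB shake-flask culture, induced with 0.3% L-arabinose, DNA abundance read by NGS, three biological replicates, DESeq2 with apeglm shrinkage.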
row,Sequence,shrunken log2 fold change
1,RRIRMRPPRLPRPRPRPNAGPRP,0.416
2,RRIRPRPPRLPRPRPRPREMPRP,0.319
3,RRIRSRPPRLPRPRPRPWFHPRP,-0.664
4,RRIRPRPPRLPRPRPRPCGLPRP,0.148
5,RRIRVRPPRLPRPRPRPHHTPRP,-0.731
6,RRIRFRPPRLPRPRPRPTWEPRP,-0.0897
7,RRIRIRPPRLPRPRPRPCYMPRP,-0.49
8,RRIRFRPPRLPRPRPRPLKNPRP,-0.193
9,RRIRPRPPRLPRPRPRPYIWPRP,-0.267
10,RRIRSRPPRLPRPRPRPRRAPRP,0.41
11,RRIRMRPPRLPRPRPRPCHTPRP,0.0555
12,RRIRVRPPRLPRPRPRPYHAPRP,-0.00207
13,RRIRRRPPRLPRPRPRPYNCPRP,0.00861
14,RRIRKRPPRLPRPRPRPQFPPRP,-0.00782
15,RRIRLRPPRLPRPRPRPTVRPRP,-0.107
16,RRIRERPPRLPRPRPRPSAEPRP,0.0172
17,RRIRIRPPRLPRPRPRPRLCPRP,0.0776
18,RRIRPRPPRLPRPRPRPYAPPRP,-0.207
19,RRIRSRPPRLPRPRPRPRKNPRP,-0.0439
20,RRIRARPPRLPRPRPRPHKRPRP,0.157
21,RRIRQRPPRLPRPRPRPRPVPRP,0.336
22,RRIRMRPPRLPRPRPRPHYCPRP,-0.116
23,RRIRDRPPRLPRPRPRPLCEPRP,0.715
24,RRIRKRPPRLPRPRPRPMPCPRP,-0.0242
25,RRIRKRPPRLPRPRPRPNLDPRP,-0.0443

row,Sequence,shrunken log2 fold change
1,RRIRFRPPRLPRPRPRPLMDPRP,-0.0516
2,RRIRHRPPRLPRPRPRPVMWPRP,0.21
3,RRIRVRPPRLPRPRPRPYVIPRP,-0.189
4,RRIRGRPPRLPRPRPRPHGGPRP,0.631
5,RRIRYRPPRLPRPRPRPQFWPRP,0.313
6,RRIRRRPPRLPRPRPRPDGLPRP,0.771
7,RRIRWRPPRLPRPRPRPSTGPRP,0.00923
8,RRIRTRPPRLPRPRPRPEYDPRP,-0.0227
9,RRIRSRPPRLPRPRPRPSCVPRP,-0.152
10,RRIRNRPPRLPRPRPRPHNCPRP,-0.0167
11,RRIRCRPPRLPRPRPRPMSYPRP,-0.23
12,RRIRFRPPRLPRPRPRPWIRPRP,-0.205
13,RRIRIRPPRLPRPRPRPQMMPRP,-0.622
14,RRIRARPPRLPRPRPRPFIRPRP,-0.27
15,RRIRDRPPRLPRPRPRPYKHPRP,-1.13
16,RRIRQRPPRLPRPRPRPFVYPRP,-0.755
17,RRIRVRPPRLPRPRPRPPNWPRP,0.293
18,RRIRNRPPRLPRPRPRPAADPRP,0.342
19,RRIRQRPPRLPRPRPRPNCNPRP,-0.882
20,RRIRIRPPRLPRPRPRPAVHPRP,-0.145
21,RRIRVRPPRLPRPRPRPREQPRP,0.0561
22,RRIRRRPPRLPRPRPRPWRWPRP,0.14
23,RRIRMRPPRLPRPRPRPMNAPRP,-0.0277
24,RRIRYRPPRLPRPRPRPQDAPRP,-0.215
25,RRIRHRPPRLPRPRPRPGVHPRP,-0.9

row,Sequence,shrunken log2 fold change
1,RRIRYRPPRLPRPRPRPLSHPRP,-0.678
2,RRIRNRPPRLPRPRPRPDHQPRP,0.113
3,RRIRQRPPRLPRPRPRPEWDPRP,0.0586
4,RRIRFRPPRLPRPRPRPQIGPRP,-0.128
5,RRIRSRPPRLPRPRPRPVASPRP,-0.151
6,RRIRWRPPRLPRPRPRPANGPRP,-0.186
7,RRIRCRPPRLPRPRPRPLHWPRP,0.467
8,RRIRRRPPRLPRPRPRPEGIPRP,0.252
9,RRIRPRPPRLPRPRPRPPIFPRP,-0.246
10,RRIRWRPPRLPRPRPRPFFNPRP,-0.267
11,RRIRFRPPRLPRPRPRPRYQPRP,-0.738
12,RRIRYRPPRLPRPRPRPIVGPRP,0.1
13,RRIRCRPPRLPRPRPRPRMLPRP,0.0183
14,RRIRQRPPRLPRPRPRPIDIPRP,0.107
15,RRIRPRPPRLPRPRPRPCVQPRP,0.283
16,RRIRVRPPRLPRPRPRPRYDPRP,-0.0252
17,RRIRMRPPRLPRPRPRPSEMPRP,0.185
18,RRIRKRPPRLPRPRPRPCPFPRP,-0.223
19,RRIRMRPPRLPRPRPRPHHWPRP,0.439
20,RRIRWRPPRLPRPRPRPEIDPRP,0.0771
21,RRIRTRPPRLPRPRPRPDIEPRP,-0.117
22,RRIRPRPPRLPRPRPRPMHNPRP,-0.202
23,RRIRTRPPRLPRPRPRPMVDPRP,-0.00822
24,RRIRLRPPRLPRPRPRPAYDPRP,-0.00456
25,RRIRTRPPRLPRPRPRPIWTPRP,0.00694

row,Sequence,shrunken log2 fold change
1,RRIRPRPPRLPRPRPRPGSFPRP,0.0277
2,RRIRVRPPRLPRPRPRPWIVPRP,-0.266
3,RRIRDRPPRLPRPRPRPMGIPRP,0.0303
4,RRIRERPPRLPRPRPRPRYYPRP,-0.206
5,RRIRHRPPRLPRPRPRPLCLPRP,-0.368
6,RRIRKRPPRLPRPRPRPPGMPRP,0.473
7,RRIRARPPRLPRPRPRPDHTPRP,-0.155
8,RRIRKRPPRLPRPRPRPMENPRP,0.0428
9,RRIRIRPPRLPRPRPRPDQPPRP,0.022
10,RRIRPRPPRLPRPRPRPREWPRP,0.151
11,RRIRVRPPRLPRPRPRPDVQPRP,-0.0199
12,RRIRGRPPRLPRPRPRPFFVPRP,0.246
13,RRIRDRPPRLPRPRPRPSRCPRP,0.346
14,RRIRVRPPRLPRPRPRPCHGPRP,0.000197
15,RRIRWRPPRLPRPRPRPYGHPRP,-0.478
16,RRIRLRPPRLPRPRPRPPQGPRP,1.27
17,RRIRNRPPRLPRPRPRPQIGPRP,0.0326
18,RRIRCRPPRLPRPRPRPYPYPRP,-0.248
19,RRIRARPPRLPRPRPRPLYMPRP,-0.48
20,RRIRFRPPRLPRPRPRPYLYPRP,-0.498
21,RRIRWRPPRLPRPRPRPWLCPRP,-0.0206
22,RRIRLRPPRLPRPRPRPIQIPRP,0.03
23,RRIRNRPPRLPRPRPRPRRYPRP,0.0725
24,RRIRARPPRLPRPRPRPRMVPRP,0.686
25,RRIRCRPPRLPRPRPRPELIPRP,-0.0287

row,Sequence,shrunken log2 fold change
1,RRIRTRPPRLPRPRPRPKLNPRP,0.097
2,RRIRQRPPRLPRPRPRPSPLPRP,0.0509
3,RRIRCRPPRLPRPRPRPESGPRP,0.0145
4,RRIRLRPPRLPRPRPRPKIIPRP,-0.69
5,RRIRARPPRLPRPRPRPLDGPRP,0.425
6,RRIRERPPRLPRPRPRPQMNPRP,-0.276
7,RRIRMRPPRLPRPRPRPTRHPRP,0.889
8,RRIRGRPPRLPRPRPRPSPVPRP,0.585
9,RRIRYRPPRLPRPRPRPPNVPRP,0.0158
10,RRIRNRPPRLPRPRPRPVEHPRP,-0.123
11,RRIRIRPPRLPRPRPRPDLFPRP,-0.103
12,RRIRERPPRLPRPRPRPTRPPRP,0.461
13,RRIRYRPPRLPRPRPRPRIPPRP,-0.353
14,RRIRSRPPRLPRPRPRPFCSPRP,-0.212
15,RRIRGRPPRLPRPRPRPWMYPRP,-0.0352
16,RRIRLRPPRLPRPRPRPQYFPRP,-0.158
17,RRIRMRPPRLPRPRPRPFAYPRP,-0.157
18,RRIRARPPRLPRPRPRPHCFPRP,0.36
19,RRIRWRPPRLPRPRPRPMQDPRP,-0.13
20,RRIRYRPPRLPRPRPRPAVWPRP,0.11
21,RRIRRRPPRLPRPRPRPCALPRP,-0.22
22,RRIRCRPPRLPRPRPRPQRCPRP,-0.0802
23,RRIRDRPPRLPRPRPRPSASPRP,0.259
24,RRIRQRPPRLPRPRPRPYKFPRP,-0.0369
25,RRIRRRPPRLPRPRPRPLMTPRP,0.351
